This data set is described as follows: protein stability index of a GFP-peptide fusion (GPS, HEK-293T) (PSI 1-6); higher = more stable.
[1] abbreviates: treatment: DMSO, c terminus: a fixed tail appended.
The mark [2] stands for this setting: treatment: MLN4924 1 uM, 8 h, c terminus: a fixed tail appended.

± gives the standard deviation.
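Note: 24-mer peptide tiles fused after GFP, lentivirally expressed, FACS-sorted into six equal bins by GFP/DsRed ratio, decoded by Illumina sequencing, PSI is the read-weighted mean bin number.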

TWHHTKPLLPSDLRRTGCAALRIA [GAN] returned a protein stability index under setting [1] of 2.45 ± 0.33 and a protein stability index under setting [2] of 2.48 ± 0.24.
Consider TYWQCGQYLGVGPGAHGRFMPQGA [RSAD1], for which the protein stability index reads like this: under setting [1], 2.27 ± 0.26; under setting [2], 2.65 ± 0.49.
In the same order, the values of VAARTPAVEGLTEAEEEELRAELT [TPD52L2] are 5.56 ± 0.23 and 5.26 ± 0.26.
In the case of VAAVLEAVAQTAHLPADSEVTLEA [RSAD1], the protein stability index was 3.8 ± 0.17 under setting [1] and 3.94 ± 0.37 under setting [2].
The matching figures for VADIDGQYAMTRAQRVRAAMFPET [CTNNB1]: 3.65 ± 0.25 and 3.6 ± 0.24.
In the case of VADMMYFCQMLAVVETINAAIGVT [HACD3], the protein stability index runs as follows: under setting [1], 3.06 ± 0.42; under setting [2], 3.2 ± 0.36.
In the same order, the values of VAFGIEADDESLLRTSNGQPVKTA [DNAAF3] are 4.47 ± 0.23 and 4.52 ± 0.16.
The matching figures for VAIAQKFAALRASLVAPLLLELAG [MYORG]: 2.9 ± 0.76 and 2.68 ± 1.1.
The matching figures for VAQLEDRRSTTDLRGTQFDYERGK [ZSWIM9]: 5.03 ± 0.18 and 5.07 ± 0.24.
The sequence VARPVRFPREHQFFEDGDVQRHLY [ZNF511] yielded a protein stability index under setting [1] of 3.31 ± 0.17 and a protein stability index under setting [2] of 3.55 ± 0.38.
The matching figures for VAVLKGEQEKEAQHKDQTAALPLA [MAP2]: 5.28 ± 0.17 and 5.09 ± 0.27.
As to VCLPRSEDDDCDDDDDDDAQILPS [DRICH1], the protein stability index amounted to 5.38 ± 0.22 under setting [1] and 5.14 ± 0.09 under setting [2].
Sequence VDDKFGTGTKKVTRILDGGNPFLD [PSD2] displayed a protein stability index under setting [1] of 4.18 ± 0.051 and a protein stability index under setting [2] of 4.23 ± 0.25.
In the same order, the values of VDGRATQKLIVNLKPEKSYSFVLT [PTPRD] are 2.4 ± 0.51 and 2.37 ± 0.66.
In the same order, the values of VDNIDMIDGDGDDMERFMEEMREL [BEX5] are 5.27 ± 0.41 and 5.26 ± 0.21.
The matching figures for VDWDEEYPPQMGEEYSQIIYSTKL [BTBD10]: 3.49 ± 0.15 and 3.55 ± 0.41.
As to VEEVVYDLSIRGFNKETAAACVEK [TSN], the protein stability index stood at 4.63 ± 0.22 under setting [1] and 4.51 ± 0.56 under setting [2].
The matching figures for VEGFRVTLVDEGDLYNWEVAIFGP [CDC34]: 3.11 ± 0.82 and 2.85 ± 0.95.
For the sequence VEKLLREEAEGARWTSYRFSRVCR [TRIM35], the protein stability index is, setting by setting: under setting [1], 2.89 ± 0.28; under setting [2], 3.22 ± 0.2.
The matching figures for VGAAYASLRRRGASAAARLGCNRQ [TRIM14]: 3.36 ± 0.17 and 4.09 ± 0.39.
The matching figures for VGTRQNEELPCTCPLCTSDRGSCV [RHOBTB3]: 4.77 ± 0.27 and 4.93 ± 0.12.
In the same order, the values of VGYGDMYPVTIGGKIVGSLCAIAG [KCNA1] are 2.09 ± 0.55 and 2.45 ± 0.28.
As to VIVPKEEGVISVSEDRTVRVWLKR [WDFY2], the protein stability index runs as follows: under setting [1], 2.78 ± 0.32; under setting [2], 3.17 ± 0.2.
Regarding VKRKMDGREYPDAQGFAADVRLMF [BRD3], the protein stability index by setting is: under setting [1], 2.44 ± 0.043; under setting [2], 2.58 ± 0.18.
In the same order, the values of VLCLLAADEDDDRDVALQIHFTLI [GADD45A] are 3.49 ± 2.2 and 2.15 ± 1.
In the same order, the values of VLEENGEKNQVQLGKLEATIKSLS [SASS6] are 3.98 ± 0.43 and 3.79 ± 0.16.
The matching figures for VLRVEQQPHLPLLSTLAGIRVMVH [SCNN1D]: 2.31 ± 0.25 and 2.26 ± 0.082.
Regarding VMSALWVSGLDSSYLREQMLNEPL [GAN], the protein stability index came out at 2.83 ± 0.24 under setting [1] and 2.29 ± 0.54 under setting [2].
The matching figures for VMVRWNKSLEWSPWNCILLTKDEA [IQUB]: 2.57 ± 1 and 2.25 ± 0.35.
In the same order, the values of VNDKRRKKSGEKEQHISKCKKAFR [KMT2E] are 3.76 ± 0.14 and 3.86 ± 0.27.
The matching figures for VPDREEGGSGGGGGGDEDGSLGSR [SMAD6]: 5.59 ± 0.24 and 5.33 ± 0.3.
For the sequence VPEEEQAANKGEEKKDDENIPMET [SMARCE1], the protein stability index under setting [1] turned out to be 5.63 ± 0.19 and the protein stability index under setting [2] worked out at 5.68 ± 0.27.
In the same order, the values of VPLARSLQISEELLSRNQLSTAAS [LCOR] are 3.67 ± 0.097 and 3.73 ± 0.076.
The matching figures for VPTVSRPYSFIEFDTFIQKTKKLY [SEC22B]: 2.3 ± 0.34 and 2.47 ± 0.17.
In the same order, the values of VQEVMEEEWNALQSVENCPEDLAQ [RPAIN] are 5.51 ± 0.21 and 5.48 ± 0.089.
With VQKDHENYMKILLKVGGILVMPIE [PCMTD1], the protein stability index by setting is: under setting [1], 2.88 ± 0.67; under setting [2], 2.16 ± 0.48.
VQNGTYLQRVLQNCPWPMSCPGSS [EMID1]: the protein stability index came to 2.12 ± 0.36 under setting [1] and 3.17 ± 1.1 under setting [2].
In the case of VRILLRRGVDVSLQGKDAWLPLHY [RIPK4], the protein stability index stood at 2.99 ± 1.7 under setting [1] and 2.29 ± 0.44 under setting [2].
As for VRMSADAMLKALLGSKHKVCMDLR [TNNI2], the protein stability index amounted to 2.25 ± 0.45 under setting [1] and 2.1 ± 0.3 under setting [2].
The matching figures for VRRSSRKSKAELQSEERKRIDELI [KMT5A]: 4.62 ± 0.48 and 4.51 ± 0.39.
In the same order, the values of VSFLRSGTKLIFRRRPRQKEAGLS [C2CD2L] are 2.75 ± 0.74 and 3.1 ± 0.24.
In the same order, the values of VSGCPEDLTVGRAPTADDDDDDHD [NOL4L] are 5.62 ± 0.31 and 5.63 ± 0.28.
Take VSGKCEPIGCDGVLFSTHTLDKCG [ADAMTSL2]: the protein stability index is, setting by setting: under setting [1], 3.41 ± 0.4; under setting [2], 3.35 ± 0.29.
In the same order, the values of VSPIQIDGAGRTWQDSDTVKLLVD [TOR1AIP2] are 3.92 ± 0.11 and 3.75 ± 0.32.
The matching figures for VTETEETQEKKAESKEPIEEEPTG [SDE2]: 5.68 ± 0.19 and 5.85 ± 0.11.
The matching figures for VTHREGAPPLPGAESFPGSQVMGS [PLEKHN1]: 4.63 ± 0.14 and 4.51 ± 0.11.
Consider VTLQCLAARALDKNKIPYKGFIPE [FEM1A], for which the protein stability index is 2.69 ± 0.27 under setting [1] and 2.67 ± 0.28 under setting [2].
The matching figures for VVAAVGKELIIFRLVAPTEGSLEW [WDR41]: 2.3 ± 0.21 and 2.37 ± 0.28.
The matching figures for VVDRIQSSGKNVTLLVCGKKAYDY [PDZK1]: 2.42 ± 0.5 and 2.54 ± 0.31.
VVEEAKCCCFFKRKRKKTAQRHK [CSNK1G1]: the protein stability index is, setting by setting: (treatment: DMSO, c terminus: native) 4.18 ± 0.33; (treatment: MLN4924 1 uM, 8 h, c terminus: native) 4.69 ± 0.42.
With VVGFDLELGQAVEVIYPQHSKLTD [DENND6A], the protein stability index amounted to 2.03 ± 0.097 under setting [1] and 2.62 ± 0.3 under setting [2].
The matching figures for VVKEEISDDNAKLPCFNGRVVSWL [DVL3]: 2.94 ± 0.29 and 3.19 ± 0.19.
For VVPPTPPVVKKKGVKRKADTTTPT [BRD3], the protein stability index is, setting by setting: under setting [1], 4.9 ± 0.39; under setting [2], 4.82 ± 0.31.
The matching figures for WGPSGQLMGEIAKATFMYEQFPEL [CLINT1]: 1.97 ± 0.38 and 2.06 ± 0.23.
WLPESDCETVTCCLFSERDAAGAP [SMAD6]: the protein stability index is, setting by setting: under setting [1], 3.72 ± 0.58; under setting [2], 3.96 ± 0.27.
On to WMQANYDPLSDSDSMTSQAKPEAL [ELOA2], for which the protein stability index runs as follows: under setting [1], 4.72 ± 0.12; under setting [2], 4.54 ± 0.26.
In the same order, the values of WPRNPPSRLLGAAAGQRSRPSTYY [DNAJC4] are 3.24 ± 0.25 and 3.67 ± 0.4.
The matching figures for WVEQAYADKCVCGPSAPPAPTPPS [TIAF1]: 3.9 ± 0.17 and 3.9 ± 0.3.
In the same order, the values of YANAVLQALSNVPPLRNYFLEEDN [USP39] are 2.19 ± 0.072 and 2.12 ± 0.24.
As for YCAKLCEPQWFYEETESSDDVEVL [C8orf76], the protein stability index came to 2.98 ± 0.67 under setting [1] and 3.6 ± 0.79 under setting [2].
As to YDQLKAFLCGRALTSDLYAPMVAG [SLC25A39], the protein stability index runs as follows: under setting [1], 2.61 ± 0.2; under setting [2], 2.04 ± 0.15.
In the same order, the values of YDYLRKLFTDLFDRKGYMFDYEYD [CSNK1G3] are 2.11 ± 0.76 and 2 ± 0.3.
In the same order, the values of YEDGEVEEEADSCFGDDEDDSGTE [CDC34] are 5.61 ± 0.16 and 5.67 ± 0.12.
In the same order, the values of YEFQIPYICPDYQSYFKTIEDFQQ [KRT36] are 2.28 ± 0.3 and 2.07 ± 0.3.
Regarding YEHHYHTLHGNVCSFCKRAFPSGH [ZNF511], the protein stability index stood at 2.73 ± 0.37 under setting [1] and 3.19 ± 0.54 under setting [2].
In the case of YERTLGQYQYERYGAVELSGAGRR [IRX6], the protein stability index is 3.75 ± 0.36 under setting [1] and 3.81 ± 0.3 under setting [2].
As for YFQSVTSNRWLMVKIFLILIVFFI [STX5], the protein stability index stood at 2.85 ± 0.6 under setting [1] and 2.93 ± 0.49 under setting [2].
In the same order, the values of YGETCFPKGRFERKRNPSRKKQHI [ZNF24] are 2.93 ± 0.62 and 3.24 ± 0.6.
The matching figures for YGMQTQNYPKGGLLDSMCPASTPS [ETS2]: 3.79 ± 0.19 and 3.64 ± 0.18.
The matching figures for YKENFLKRFQLTKLPPYLIFCIKR [USP39]: 3.02 ± 0.77 and 2.82 ± 0.43.
In turn, YKPEQPLVRLRGGAYIGEGRVEVL [LOXL2] yielded a protein stability index under setting [1] of 3.12 ± 0.16 and a protein stability index under setting [2] of 2.97 ± 0.47.
With YKSVLQAVQKTDEGHPFKAYLELE [RTN1], the protein stability index is 3.43 ± 0.12 under setting [1] and 3.54 ± 0.21 under setting [2].

For the origin of these results see the supplement of paper PMC10567573.
